Results on 2 molecules are retold here after PMC2148189 (The Journal of Cell Biology, 1999).

First the molecules themselves.
B1: His6–l-afadin-C199 (domain or fragment, UniProt O35889-1 1631-1829, looked up)
chain: DRVRQEEDGRHQEEERVKRDAEEKRRQEEGYYSRLEAERRRQHEEAARRLLEPEEPGLSRPPLPQDYEPPSQSSAPSAPPPPPQRNASYLKTQVLSPDSLFTAKFVAYDDDDEEENYVPAGPNSYSGSAGTTAGTYDAPRDTREKLSRSQDADLPGSSGAPENLTFRERQRLFSQGQDVSDKVKASRKLTELENELNTK

What all share (test): pull-down
Test [1] deals with T1, GST–ponsin-2-C (the COOH-terminal half) (mouse, UniProt Q62417-3 401-724).
T1 sequence (looked up): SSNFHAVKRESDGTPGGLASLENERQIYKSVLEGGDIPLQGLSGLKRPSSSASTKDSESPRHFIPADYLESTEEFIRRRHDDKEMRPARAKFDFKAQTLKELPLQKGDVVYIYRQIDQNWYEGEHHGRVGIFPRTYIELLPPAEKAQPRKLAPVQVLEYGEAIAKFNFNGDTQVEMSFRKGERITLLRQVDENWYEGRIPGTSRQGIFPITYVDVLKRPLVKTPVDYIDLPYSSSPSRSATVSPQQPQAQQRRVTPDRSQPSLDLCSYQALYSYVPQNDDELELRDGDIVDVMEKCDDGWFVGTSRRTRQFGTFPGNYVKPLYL

For test [2], the target named is T2, GST–ponsin-2-F (the full length) (mouse, UniProt Q62417-3 1-724).
T2 sequence (looked up): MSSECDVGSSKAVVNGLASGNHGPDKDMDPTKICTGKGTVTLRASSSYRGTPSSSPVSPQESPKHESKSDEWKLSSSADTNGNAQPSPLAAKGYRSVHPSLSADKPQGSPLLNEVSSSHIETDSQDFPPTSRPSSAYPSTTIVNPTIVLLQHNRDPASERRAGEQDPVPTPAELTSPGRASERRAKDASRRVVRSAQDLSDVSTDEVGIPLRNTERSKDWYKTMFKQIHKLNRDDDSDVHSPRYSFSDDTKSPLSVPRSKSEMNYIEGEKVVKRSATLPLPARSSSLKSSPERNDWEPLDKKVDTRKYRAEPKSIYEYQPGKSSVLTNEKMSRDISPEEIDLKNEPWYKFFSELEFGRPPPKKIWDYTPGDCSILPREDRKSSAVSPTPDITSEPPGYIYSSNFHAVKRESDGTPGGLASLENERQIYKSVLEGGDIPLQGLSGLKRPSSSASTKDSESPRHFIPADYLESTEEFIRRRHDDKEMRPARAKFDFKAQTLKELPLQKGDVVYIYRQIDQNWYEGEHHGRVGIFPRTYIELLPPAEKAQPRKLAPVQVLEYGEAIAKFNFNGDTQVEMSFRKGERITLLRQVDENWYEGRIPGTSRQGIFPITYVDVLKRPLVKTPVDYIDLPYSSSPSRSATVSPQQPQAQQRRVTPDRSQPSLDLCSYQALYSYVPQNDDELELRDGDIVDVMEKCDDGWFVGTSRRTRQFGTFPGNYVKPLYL

The test “His6–l-afadin-C199” addresses B1.

In the case of B1, the binding result in test [1] and in test [2] was “binds” throughout.

B2: GST–ponsin-2-SH3(2+3) (the second and third SH3 domains) (domain or fragment, mouse, UniProt Q62417-3 543-724, looked up)
chain: AEKAQPRKLAPVQVLEYGEAIAKFNFNGDTQVEMSFRKGERITLLRQVDENWYEGRIPGTSRQGIFPITYVDVLKRPLVKTPVDYIDLPYSSSPSRSATVSPQQPQAQQRRVTPDRSQPSLDLCSYQALYSYVPQNDDELELRDGDIVDVMEKCDDGWFVGTSRRTRQFGTFPGNYVKPLYL
With B2, the binding result with His6–l-afadin-C199 is listed as “binds”.
